Test results: PMC3046150

Assays:
[1] = target: human TrkA on BALB/C 3T3-hTrkA cells (human) (UniProt P04629)
[2] = target: p75 neurotrophin receptor (p75NTR), endogenous on rat cells (rat (endogenous in rat oligodendrocyte progenitor cells)) (UniProt P07174)
UniProt P07174, sequence (P07174 30-425): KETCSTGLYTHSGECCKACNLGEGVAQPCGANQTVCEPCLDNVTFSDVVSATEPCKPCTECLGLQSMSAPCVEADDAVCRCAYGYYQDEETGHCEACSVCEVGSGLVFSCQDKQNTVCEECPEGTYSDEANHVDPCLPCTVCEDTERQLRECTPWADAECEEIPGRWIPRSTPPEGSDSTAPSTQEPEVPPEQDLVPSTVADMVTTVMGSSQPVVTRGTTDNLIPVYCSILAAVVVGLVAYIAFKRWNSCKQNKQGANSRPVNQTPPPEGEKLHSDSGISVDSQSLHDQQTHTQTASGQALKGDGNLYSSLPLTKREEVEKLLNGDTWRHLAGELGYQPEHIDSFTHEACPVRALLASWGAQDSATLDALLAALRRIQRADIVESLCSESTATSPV

UniProt P04629, sequence (P04629 33-796): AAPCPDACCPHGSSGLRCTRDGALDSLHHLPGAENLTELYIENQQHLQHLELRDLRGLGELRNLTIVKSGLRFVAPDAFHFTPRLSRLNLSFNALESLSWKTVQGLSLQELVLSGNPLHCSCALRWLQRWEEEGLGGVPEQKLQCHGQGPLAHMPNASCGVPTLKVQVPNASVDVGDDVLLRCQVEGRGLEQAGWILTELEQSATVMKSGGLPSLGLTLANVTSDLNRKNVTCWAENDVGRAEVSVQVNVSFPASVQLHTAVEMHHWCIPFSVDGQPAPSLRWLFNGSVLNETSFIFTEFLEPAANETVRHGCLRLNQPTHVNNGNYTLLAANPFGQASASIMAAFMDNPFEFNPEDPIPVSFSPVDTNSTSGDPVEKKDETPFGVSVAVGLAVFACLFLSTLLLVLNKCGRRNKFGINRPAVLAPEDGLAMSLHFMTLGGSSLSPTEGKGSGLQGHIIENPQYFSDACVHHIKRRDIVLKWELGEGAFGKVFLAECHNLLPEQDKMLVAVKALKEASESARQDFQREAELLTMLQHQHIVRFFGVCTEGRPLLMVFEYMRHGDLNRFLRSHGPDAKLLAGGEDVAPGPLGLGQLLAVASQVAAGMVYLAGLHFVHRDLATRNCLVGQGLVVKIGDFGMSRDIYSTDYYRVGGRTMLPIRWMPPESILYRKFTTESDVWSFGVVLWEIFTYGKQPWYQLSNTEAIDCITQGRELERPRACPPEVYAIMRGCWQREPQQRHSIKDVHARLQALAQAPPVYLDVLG

Substance	phosphorylation of TrkA residue Tyr490 in BALB/C 3T3-hTrkA cells, 100 ng/ml, Western blot with site-specific anti-phosphoTrkA antibody (% reduction against hNGF) [1]	phosphorylation of c-jun at Ser63 in hippocampal cells (p75NTR dependent activation of the jnk kinase), 100 ng/ml (% reduction against hNGF) [2]
hNGFR100E, mature human NGF with the substitution R100E (from UniProt P01138 122-241) (ligand)	70	30
hNGFR100W, mature human NGF with the HSAN V substitution R100W (from UniProt P01138 122-241) (ligand)	70	
